According to publication PMC6441084:

Target: microtubules (MTs) polymerised from purified tubulin (Cytoskeleton, # T240) (UniProt P02550)

MT-polymerization (turbidity at 340 nm, no taxol; 2 µM tubulin, 0.2 µM Diaph2 protein), fold against the control: 6 fold
Substance: Diaph2 mutant lacking the FH2-domain (ΔFH2-Diaph2), GST-fusion protein (from UniProt O60879 1-1101) (natural protein)
